These results are taken from patent US20230287109A1 (INGENIA THERAPEUTICS, published 2023).

The target in this assay is T1, rabbit Tie2 (form not stated) (rabbit).
T1 construct: also called rabbit ortholog of Tie-2
Kind of assay: SPR, summary table, column Rabbit Tie2, Kd [M]. Background: Surface plasmon resonance follows binding to a sensor surface in real time, without labels.

For orientation: Kd means a measure of binding affinity in units of concentration. Read a low Kd as higher affinity.

B1: PRO593, PEGylated with two 20 kDa linear PEG (Fc fusion)
heavy: EVQLVQSGAEVKKPGASVKVSCKASGYSFTSYWMNWVRQAPGQGLEWMGMIHPSDSETRLNQKFMDRVTMTRDTSTSTVYMELSSLRSEDTAVYYCARGLYGNSWGQGTLVTVSSASTKGPSVFPLAPSSKSTSGGTAALGCLVKDYFPEPVTVSWNSGALTSGVHTFPAVLQSSGLYSLSSVVTVPSSSLGTQTYICNVNHKPSNTKVDKKVEPKSSDKTHTSPPSPAPEAAGGPSVFLFPPKPKDTLMISRTPEVTCVVVDVSHEDPEVKFNWYVDGVEVHNAKTKPREEQYNSTYRVVSVLTVLAQDWLNGKEYKCKVSNKALPAPIEKTISKAKGQPREPQVYTLPPSRDELTKNQVSLTCLVKGFYPSDIAVEWESNGQPENNYKTTPPVLDSDGSFFLYSKLTVDKSRWQQGNVFSCSVMHEALHNHYTQKSLSLSPGKGGGGSGGGGSGGGGSGGGGSSDTGRPFVEMYSEIPEIIHMTEGRELVIPCRVTSPNITVTLKKFPLDTLIPDGKRIIWDSRKGFIISNATYKEIGLLTCEATVNGHLYKTNYLTHRQTNTIIDVVLSPSHGIELSVGEKLVLNCTARTELNVGIDFNWEYPSSKHQHKKLVNRDLKTQSGSEMKKFLSTLTIDGVTRSDQGLYTCAASSGLMTKKNSTFVRVHEKGGSSKCA
light: DIQMTQSPSSLSASVGDRVTITCRASQDIGISLNWYQQEPGKAIKRLIYATSSLDSGVPKRFSGSRSGTEYTLTISSLESEDFADYYCLQYASSPYTFGGGTKLEIKRTVAAPSVFIFPPSDEQLKSGTASVVCLLNNFYPREAKVQWKVDNALQSGNSQESVTEQDSKDSTYSLSSTLTLSKADYEKHKVYACEVTHQGLSSPVTKSFNRGES
modifications: chain 1 pos 676: Cys carrying 20 kDa linear PEG-maleimide, written C (two PEG per antibody, one on each heavy chain).
notes: All interchain disulfide bonds removed
As to B1, the Kd is < 0.127 nM.

B2: PRO593, PEGylated with two 40 kDa branched PEG (Fc fusion)
heavy: EVQLVQSGAEVKKPGASVKVSCKASGYSFTSYWMNWVRQAPGQGLEWMGMIHPSDSETRLNQKFMDRVTMTRDTSTSTVYMELSSLRSEDTAVYYCARGLYGNSWGQGTLVTVSSASTKGPSVFPLAPSSKSTSGGTAALGCLVKDYFPEPVTVSWNSGALTSGVHTFPAVLQSSGLYSLSSVVTVPSSSLGTQTYICNVNHKPSNTKVDKKVEPKSSDKTHTSPPSPAPEAAGGPSVFLFPPKPKDTLMISRTPEVTCVVVDVSHEDPEVKFNWYVDGVEVHNAKTKPREEQYNSTYRVVSVLTVLAQDWLNGKEYKCKVSNKALPAPIEKTISKAKGQPREPQVYTLPPSRDELTKNQVSLTCLVKGFYPSDIAVEWESNGQPENNYKTTPPVLDSDGSFFLYSKLTVDKSRWQQGNVFSCSVMHEALHNHYTQKSLSLSPGKGGGGSGGGGSGGGGSGGGGSSDTGRPFVEMYSEIPEIIHMTEGRELVIPCRVTSPNITVTLKKFPLDTLIPDGKRIIWDSRKGFIISNATYKEIGLLTCEATVNGHLYKTNYLTHRQTNTIIDVVLSPSHGIELSVGEKLVLNCTARTELNVGIDFNWEYPSSKHQHKKLVNRDLKTQSGSEMKKFLSTLTIDGVTRSDQGLYTCAASSGLMTKKNSTFVRVHEKGGSSKCA
light: DIQMTQSPSSLSASVGDRVTITCRASQDIGISLNWYQQEPGKAIKRLIYATSSLDSGVPKRFSGSRSGTEYTLTISSLESEDFADYYCLQYASSPYTFGGGTKLEIKRTVAAPSVFIFPPSDEQLKSGTASVVCLLNNFYPREAKVQWKVDNALQSGNSQESVTEQDSKDSTYSLSSTLTLSKADYEKHKVYACEVTHQGLSSPVTKSFNRGES
modifications: chain 1 pos 676: Cys carrying 40 kDa branched PEG-maleimide, written C (one PEG per heavy chain, two per antibody)
In the case of B2, the Kd was < 0.13 nM.
